Data reported in patent publication US20200181263A1 (NUMAB THERAPEUTICS, published 2020).

T1: cyno CD3 (cyno, UniProt Q95LI5 22-117)
T1 sequence (looked up): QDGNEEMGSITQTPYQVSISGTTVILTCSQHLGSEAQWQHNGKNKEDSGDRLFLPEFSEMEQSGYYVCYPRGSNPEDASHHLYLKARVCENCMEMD

T2: human IL-23 receptor ECD (human, UniProt Q5VWK5 24-355)
T2 construct: extracellular domain
T2 sequence (looked up): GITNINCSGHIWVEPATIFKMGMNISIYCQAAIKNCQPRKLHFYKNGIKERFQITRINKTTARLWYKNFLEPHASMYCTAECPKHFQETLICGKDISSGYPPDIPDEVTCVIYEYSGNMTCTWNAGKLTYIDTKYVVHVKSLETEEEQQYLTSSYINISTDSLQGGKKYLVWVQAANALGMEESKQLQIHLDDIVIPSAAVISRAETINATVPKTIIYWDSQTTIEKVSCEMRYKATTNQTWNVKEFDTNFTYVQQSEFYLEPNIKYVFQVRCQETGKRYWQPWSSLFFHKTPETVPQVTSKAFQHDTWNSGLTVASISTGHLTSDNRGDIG


Columns and labels:
[1] = target: T3, human CD3 gamma-epsilon single-chain (human, UniProt P09693 23-103; P07766 23-118); experiment: SPR, target immobilised by amine coupling, binder as analyte
T3 construct: Recombinant protein immobilised on the SPR chip

cyno CD3 = target: T1, cyno CD3; experiment: as above
human serum albumin = target: T4, human serum albumin (human, UniProt P02768 25-609); experiment: as above
T4 construct: also called HSA

human IL-23 receptor ECD = target: T2, human IL-23 receptor ECD; experiment: as above
[2] = target: human IL23R IL12Rbeta 1 heterodimer on CHO-K1 cells (human, UniProt Q5VWK5 24-629; P42701 24-662); experiment: cell-based or functional assay

Binder | Kd [1] [pM] | Kd (cyno CD3) [pM] | Kd (human serum albumin) [pM] | Kd (human IL-23 receptor ECD) [pM] | NFAT assay EC50 (T-cell activation, 5 h) [2] [pM]
PRO741 (other, Hetero-dimeric MATCH, anti-parallel; diS in anti-CD3 domain, 11 aa GS-linker, alternative anti-HSA) chain 1: DIQMTQSPSSLSASVGDRVTITCQASENIYSFLAWYQQKPGKAPKLLIYSASKLAAGVPSRFSGSGSGTDFTLTISSLQPEDFATYYCQQTNRYSNPDIYNVFGTGTKVTVLGGGGGSGGGGSGGGGSGGGGSEVQLVESGGGLVQPGGSLRLSCAASGIDFNSNYYMCWVRQAPGKGLEWIGCIYVGSHVNTYYANWAKGRFTISRDNSKNTVYLQMNSLRAEDTAVYYCATSGSSVLYFKFWGQGTLVTVSSGGGGSGGGGSDIQMTQSPSSLSASVGDRVTITCQSSQSVFSNNYLAWFQQKPGQSPKRLIYSASTLASGVPSRFSGSGSGTDFTLTISSLQPEDFATYYCLGSYACSSADCYVFGCGTKVTVLGSGGGGSGGGGSDVVMTQSPSSLSASVGDRVTITCQASQIISSRSAWYQQKPGQPPKLLIYQASKLASGVPSRFSGSGSGTDFTLTISSLQPEDFATYYCQCTYIDSNFGAFGGGTKLTVLG chain 2: DIQMTQSPSSLSASVGDRVTITCQASENIYSFLAWYQQKPGKAPKLLIYSASKLAAGVPSRFSGSGSGTDFTLTISSLQPEDFATYYCQQTNRYSNPDIYNVFGTGTKVTVLGGGGGSGGGGSGGGGSGGGGSEVQLVESGGGLVQPGGSLRLSCAASGIDFNSNYYMCWVRQAPGKGLEWIGCIYVGSHVNTYYANWAKGRFTISRDNSKNTVYLQMNSLRAEDTAVYYCATSGSSVLYFKFWGQGTLVTVSSGGGGSGGGGSEVQLVESGGGLVQPGGSLRLSCAASGFSFSSSYWICWVRQAPGKGLEWVGCVFTGDGTTYYASWAKGRFTISRDNSKNTVYLQMNSLRAEDTATYFCARPVSVYYYGMDLWGQGTLVTVSSSGGGGSGGGGSEVQLVESGGGLVQPGGSLRLSCAASGFSLSSYDMSWVRQAPGKCLAWIGASYASGPTYYASWAKGRFTISRDNSKNTVYLQMNSLRAEDTATYFCARGGWTGTSHSNIWGQGTLVTVSS | 7580 | 1080 | 338 | 37.8 | 
PRO736 (other, Hetero-dimeric MATCH, parallel; diS in anti-CD3 domain, 15 aa GS-linker) chain 1: DIQMTQSPSSLSASVGDRVTITCQASENIYSFLAWYQQKPGKAPKLLIYSASKLAAGVPSRFSGSGSGTDFTLTISSLQPEDFATYYCQQTNRYSNPDIYNVFGTGTKVTVLGGGGGSGGGGSGGGGSGGGGSEVQLVESGGGLVQPGGSLRLSCAASGIDFNSNYYMCWVRQAPGKGLEWIGCIYVGSHVNTYYANWAKGRFTISRDNSKNTVYLQMNSLRAEDTAVYYCATSGSSVLYFKFWGQGTLVTVSSGGGGSGGGGSDIQMTQSPSSLSASVGDRVTITCQSSQSVFSNNYLAWFQQKPGQSPKRLIYSASTLASGVPSRFSGSGSGTDFTLTISSLQPEDFATYYCLGSYACSSADCYVFGCGTKVTVLGGGGGSGGGGSGGGGSDIQMTQSPSSLSASVGDRVTITCQSSESVYSNNQLSWYQQKPGQPPKLLIYDASDLASGVPSRFSGSGSGTDFTLTISSLQPEDFATYYCAGGFSSSSDTAFGGGTKLTVLG chain 2: DIQMTQSPSSLSASVGDRVTITCQASENIYSFLAWYQQKPGKAPKLLIYSASKLAAGVPSRFSGSGSGTDFTLTISSLQPEDFATYYCQQTNRYSNPDIYNVFGTGTKVTVLGGGGGSGGGGSGGGGSGGGGSEVQLVESGGGLVQPGGSLRLSCAASGIDFNSNYYMCWVRQAPGKGLEWIGCIYVGSHVNTYYANWAKGRFTISRDNSKNTVYLQMNSLRAEDTAVYYCATSGSSVLYFKFWGQGTLVTVSSGGGGSGGGGSEVQLVESGGGLVQPGGSLRLSCAASGFSLSSYDMSWVRQAPGKCLAWIGASYASGPTYYASWAKGRFTISRDNSKNTVYLQMNSLRAEDTATYFCARGGWTGTSHSNIWGQGTLVTVSSGGGGSGGGGSGGGGSEVQLVESGGGLVQPGGSLRLSCAASGFSLSSNAMGWVRQAPGKGLEYIGIISVGGFTYYASWAKGRFTISRDNSKNTVYLQMNSLRAEDTATYFCARDRHGGDSSGAFYLWGQGTLVTVSS | 11100 | 8370 | 635 | 48.2 | 
PRO747 (other, Hetero-dimeric MATCH, anti-parallel; diS in anti-CD3 domain, helical linker) chain 1: DIQMTQSPSSLSASVGDRVTITCQASENIYSFLAWYQQKPGKAPKLLIYSASKLAAGVPSRFSGSGSGTDFTLTISSLQPEDFATYYCQQTNRYSNPDIYNVFGTGTKVTVLGGGGGSGGGGSGGGGSGGGGSEVQLVESGGGLVQPGGSLRLSCAASGIDFNSNYYMCWVRQAPGKGLEWIGCIYVGSHVNTYYANWAKGRFTISRDNSKNTVYLQMNSLRAEDTAVYYCATSGSSVLYFKFWGQGTLVTVSSGGGGSGGGGSDIQMTQSPSSLSASVGDRVTITCQSSQSVFSNNYLAWFQQKPGQSPKRLIYSASTLASGVPSRFSGSGSGTDFTLTISSLQPEDFATYYCLGSYACSSADCYVFGCGTKVTVLGAEAAAKEAAAKADIQMTQSPSSLSASVGDRVTITCQSSESVYSNNQLSWYQQKPGQPPKLLIYDASDLASGVPSRFSGSGSGTDFTLTISSLQPEDFATYYCAGGFSSSSDTAFGGGTKLTVLG chain 2: DIQMTQSPSSLSASVGDRVTITCQASENIYSFLAWYQQKPGKAPKLLIYSASKLAAGVPSRFSGSGSGTDFTLTISSLQPEDFATYYCQQTNRYSNPDIYNVFGTGTKVTVLGGGGGSGGGGSGGGGSGGGGSEVQLVESGGGLVQPGGSLRLSCAASGIDFNSNYYMCWVRQAPGKGLEWIGCIYVGSHVNTYYANWAKGRFTISRDNSKNTVYLQMNSLRAEDTAVYYCATSGSSVLYFKFWGQGTLVTVSSGGGGSGGGGSEVQLVESGGGLVQPGGSLRLSCAASGFSLSSNAMGWVRQAPGKGLEYIGIISVGGFTYYASWAKGRFTISRDNSKNTVYLQMNSLRAEDTATYFCARDRHGGDSSGAFYLWGQGTLVTVSSAEAAAKEAAAKAEVQLVESGGGLVQPGGSLRLSCAASGFSLSSYDMSWVRQAPGKCLAWIGASYASGPTYYASWAKGRFTISRDNSKNTVYLQMNSLRAEDTATYFCARGGWTGTSHSNIWGQGTLVTVSS | 8300 | 6640 | 325 | 38.3 | 1450
PRO737 (other, Hetero-dimeric MATCH, parallel; diS in anti-CD3 domain, 15 aa GS-linker, alternative anti-CD3) chain 1: DIQMTQSPSSLSASVGDRVTITCQASENIYSFLAWYQQKPGKAPKLLIYSASKLAAGVPSRFSGSGSGTDFTLTISSLQPEDFATYYCQQTNRYSNPDIYNVFGTGTKVTVLGGGGGSGGGGSGGGGSGGGGSEVQLVESGGGLVQPGGSLRLSCAASGIDFNSNYYMCWVRQAPGKGLEWIGCIYVGSHVNTYYANWAKGRFTISRDNSKNTVYLQMNSLRAEDTAVYYCATSGSSVLYFKFWGQGTLVTVSSGGGGSGGGGSDIQMTQSPSSLSASVGDRVTITCQSSESVYNNKRLSWYQQKPGKAPKLLIYTASSLASGVPSRFSGSGSGTDFTLTISSLQPEDFATYYCQGEFTCSNADCFTFGCGTKVTVLGGGGGSGGGGSGGGGSDIQMTQSPSSLSASVGDRVTITCQSSESVYSNNQLSWYQQKPGQPPKLLIYDASDLASGVPSRFSGSGSGTDFTLTISSLQPEDFATYYCAGGFSSSSDTAFGGGTKLTVLG chain 2: DIQMTQSPSSLSASVGDRVTITCQASENIYSFLAWYQQKPGKAPKLLIYSASKLAAGVPSRFSGSGSGTDFTLTISSLQPEDFATYYCQQTNRYSNPDIYNVFGTGTKVTVLGGGGGSGGGGSGGGGSGGGGSEVQLVESGGGLVQPGGSLRLSCAASGIDFNSNYYMCWVRQAPGKGLEWIGCIYVGSHVNTYYANWAKGRFTISRDNSKNTVYLQMNSLRAEDTAVYYCATSGSSVLYFKFWGQGTLVTVSSGGGGSGGGGSEVQLVESGGGLVQPGGSLRLSCAASGFPLSSYAMIWVRQAPGKCLEWIGMILRAGNIYYASWVKGRFTISRDNSKNTVYLQMNSLRAEDTAVYYCARRHYNREGYPIGIGDLWGQGTLVTVSSGGGGSGGGGSGGGGSEVQLVESGGGLVQPGGSLRLSCAASGFSLSSNAMGWVRQAPGKGLEYIGIISVGGFTYYASWAKGRFTISRDNSKNTVYLQMNSLRAEDTATYFCARDRHGGDSSGAFYLWGQGTLVTVSS | 24000 | 56700 | 493 | 33.4 | 
PRO733 (other, Hetero-dimeric MATCH, parallel; diS in anti-CD3 domain, 11 aa GS-linker, alternative anti-CD3) chain 1: DIQMTQSPSSLSASVGDRVTITCQASENIYSFLAWYQQKPGKAPKLLIYSASKLAAGVPSRFSGSGSGTDFTLTISSLQPEDFATYYCQQTNRYSNPDIYNVFGTGTKVTVLGGGGGSGGGGSGGGGSGGGGSEVQLVESGGGLVQPGGSLRLSCAASGIDFNSNYYMCWVRQAPGKGLEWIGCIYVGSHVNTYYANWAKGRFTISRDNSKNTVYLQMNSLRAEDTAVYYCATSGSSVLYFKFWGQGTLVTVSSGGGGSGGGGSDIQMTQSPSSLSASVGDRVTITCQSSESVYNNKRLSWYQQKPGKAPKLLIYTASSLASGVPSRFSGSGSGTDFTLTISSLQPEDFATYYCQGEFTCSNADCFTFGCGTKVTVLGSGGGGSGGGGSDIQMTQSPSSLSASVGDRVTITCQSSESVYSNNQLSWYQQKPGQPPKLLIYDASDLASGVPSRFSGSGSGTDFTLTISSLQPEDFATYYCAGGFSSSSDTAFGGGTKLTVLG chain 2: DIQMTQSPSSLSASVGDRVTITCQASENIYSFLAWYQQKPGKAPKLLIYSASKLAAGVPSRFSGSGSGTDFTLTISSLQPEDFATYYCQQTNRYSNPDIYNVFGTGTKVTVLGGGGGSGGGGSGGGGSGGGGSEVQLVESGGGLVQPGGSLRLSCAASGIDFNSNYYMCWVRQAPGKGLEWIGCIYVGSHVNTYYANWAKGRFTISRDNSKNTVYLQMNSLRAEDTAVYYCATSGSSVLYFKFWGQGTLVTVSSGGGGSGGGGSEVQLVESGGGLVQPGGSLRLSCAASGFPLSSYAMIWVRQAPGKCLEWIGMILRAGNIYYASWVKGRFTISRDNSKNTVYLQMNSLRAEDTAVYYCARRHYNREGYPIGIGDLWGQGTLVTVSSSGGGGSGGGGSEVQLVESGGGLVQPGGSLRLSCAASGFSLSSNAMGWVRQAPGKGLEYIGIISVGGFTYYASWAKGRFTISRDNSKNTVYLQMNSLRAEDTATYFCARDRHGGDSSGAFYLWGQGTLVTVSS | 26500 | 47700 | 495 | 36.6 | 152
